This data set deals with the molecule itself. Kind of data set: crystal structure; tagless hCEACAM1 IgV at 15 mg/ml; sitting drop, 25 °C; 0.2 M ammonium sulfate, 0.1 M HEPES pH 7.5, 25% w/v PEG 3350; space group C121; 2.2 Å; three molecules in the asymmetric unit.

These results are taken from PMC9525683, “Structural analysis of human CEACAM1 oligomerization” (Communications Biology, 2022).

B1: human CEACAM1 IgV domain, wild type (tagless) (domain or fragment)
chain: QLTTESMPFNVAEGKEVLLLVHNLPQQLFGYSWYKGERVDGNRQIVGYAIGTQQATPGPANSGRETIYPNASLLIQNVTQNDTGFYTLQVIKSDLVNEEATGQFHVY
notes: carcinoembryonic antigen-related cell adhesion molecule 1 (CEACAM1), human, N-terminal IgV domain, non-glycosylated; The 15N-labelled form (M9 medium) was used for NMR, the unlabelled form for the crystals and UV spectroscopy; also called hCEACAM1 IgV; hCEACAM1 WT
For the protein B1, the binding result is reported as “binds”.
